Test: soluble on expression in E. coli; label from the status in PepcDB or PDB records

| Sequence | soluble on expression in E. coli |
| --- | --- |
| MSLTLRDVAAEAGVSPMTASNALRGKPGVKESTRAKVIAAAKKLNYRINLTASMLKSGRSNIIHVIVNEFDSPFYSKLTQALSNEIVSRGLIPFIEQTQYSPDAAEHALSSNPFSGQLFDGEILHATGLGTNVPLSKLNGGRPFVLLDACEETPTVDAVNFPNEEAERAAMQHLIDRGCRNIAIVGHRFAPRADLAHAQNAFALRLRGACGALSDAGLPYDESMVFEAGDVANGIIAGHAIAERILAARSGHGGTEFDGACCANDFAAFGVIRGLADRGLRVPQDVKVIGFDGVTSGSYTTPALSTIQVDFMQLAKFSVDMLSERIDHGADEALPPRRAIIGYQLVDRESTAEGHHHHHH | soluble |
| MEASKEFPGFPNDFHAFEVSPIPFDINSKELSLKNHSNRAILFKVKCTNNKRIRIEECSDILKPGNETTATIKKLVDTVDGDSLYVIYTLVGKEWHNERMSAWRCWERAKKQAVPTQCISVPIKRSSECEKKEKKYEKEKTKSED | soluble |
| MPSSRGVSLSISLAEAEVAPGGMLRGEVKVKVDSSHKNGIVYEAIRLVFLAVEKSCVWDDQGEFDELLNKYTSSRVYLDRHVTLTGFKTQSEDAETTAQVREEMLFLQHCATPYAAVAPTKPKKDAYRHYTREELLHGAIQMAATTKYTTGGVVAPDTNDSTNICMGSQKPVQAGDGPRSAAAAPRGGATEVEFPVLMPGTHRFPFLFRLPPWLPPSFYYSFVGAKGQLQYSASATMLFPGNGAGSWWFKICKDTSGAMRDMGKTFNRAAGSGAPSGKRARKRPGRDESGEGVIDLDDDEVGERMNRRLTSMPVYGPSDLTTAIHFDVLSVMPRRQLVAEYYQIDTHNLHQRPTNAPREAENAVSSSSNRNGAKKLQRRVDKSNDVGDVKPSGVSTGLLEHHEDTHLALSALYQTFRCGWLGNMCCLQPQNAIEAEVLVVGARTVLLADDVGALQALGVRPPITSDAPQLGGPALHAPDIVPSPDMAVAAPNTPWPVGGITLRVRVRNYCPTHTVECVRVELKVMLEIFKSLKTPHTFPGISYSSFDYTIPIPPGNQALFDVRLGLAPRFRRHETDSESLLPPPGVRTANMTSNTFLQVSFPGMYTYVEEEEEAKGVVIMAETVNLNDEVLELPVRYS | not soluble |
| MSATETITTNARVLGADPLVKDGFGEEDMLTLVLPYIKTAREGVLRLGELLETYGTYESNGIAFADTEEIWWLKTIGGHNWIARRVPDDAYVTNPNQLGIDHYEFENPDDYLASPDIRDFINKHHLDLTYSNEHFNPRYAFGSQRDKDHHYNTPRARAM | soluble |
| MGSDKIHHHHHHVRFATKFDLLSHIRLNAALTSARFDAEQGLWLLRLENGEQLKASFFICSAGPLSEPRYPDIPGMDTYEGRLFHSARWDHDYPLNGKRVAVIGTAASAVQIIPHIAPLAARLYVCQRSPNWIIPRLNHVYAPWEKALFRLKPIAKTNRFLLYWLHEMNRLSFNPGGFMARIGRELAEWHLRRQVIDPRLRGALRPGYPLGCKRVLLSNDYYPTLMRPNVELIDTPIDRIDPGGIVTRDGQKREVDVIICATGFNVKRMLSVEIRGLQGYRLNEAWAREPKAYQGVTVASFPNLFILLGPNTGQGHTSAILFIEAQVNYALKCIQEIARQQKRFLSVKPEAMNRYNEELQKTLSTSVWAAGCRSWYKTESGKIIGIYPGFSFQYAKQLREPRFEDYVMC | not soluble |
| MERSAIQIPAGRIDDAVAKVDGLVGELMQNTGIPGMAVAIVHGGKTLYAKGFGVRDVGKGGGPDNKVDADTVFQLASVSKSVGATVVAHAVTDNVVTWDTPVVSKLPWFALRDPYVTGQVTIADLYSHRSGLPDHAGDLLEDLGYDRRQVLQRLKYLPLAPFRISYAYTNFGVTAAAEAVAAAAGQSWEDLSDEVLYRPLGMGSTSSRFTDFLARPNHAVNHVKVADRWEARYQRDPDAQSPAGGVSSSLNDMTHWLAMVLADGVYNGRRITSPEALLLVYTPQVISRHPVSPRARASFYGYGFNVGVTSSGRTEYSHSGAFGLGAAANFVVLPSEDLAIIALTNAGPIGVPETLTAEFMDLVQYGQVREDWAALYKKAFAPLNELAGSLVGKQSPANPAPSRPLNDYVGVYANDYWGPATVTYHDGQLRLSLGPKNQTFDLTHWDGDTFTFTLSTENALPGSISKATFAGDTLNLEYYDADKLGTFTRLEHHHHHH | not soluble |
| MEPNNLKEELVSVFEKACSSHKERLDFICSVRESDTFSNVDVPLAPIKTIIEIAKNEENQTEILKLAIENIKTLSTVGSGQYIASHFSTHNEVAIIFCISYFLYHFNFLHDENKKQLLKRAFEAVAEKIADYLNEN | soluble |
| MVERIEDLNLPNAVIGRLIKEALPESASVSKEARAAIARAASVFAIFVTSSSTALAHKQNHKTITAKDILQTLTELDFESFVPSLTQDLEVYRKVVKEKKESKASKKDSNTAENANASATATAEEAPE | soluble |

Source: the DeepSol protein solubility set
